± gives the standard deviation of the averaged measurements.

The data set deals with ATP. The experiment in a line: switch fluorescence ratio, 500 uM ATP over buffer (Cy3 cluster intensity, sum of 5 cycles each) (fold (ratio)); higher = stronger signal-on switching upon ATP binding; sequences stand for … in TCGTCGGCAGCGTCAGATGTGTATAAGAGACAGTTTTTTTTTTTTTTTTTTTTTTTTT…TC. As to conditions: aptamer strand: ATP DNA aptamer (quencher-CACCTGGGGGAGTATTGCGGAGGAAGG + anchor), 100 nM annealed; ATP concentration: 500 uM. The procedure, abridged:
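Exposure to 500 uM ATP lasted 15 min at 22 °C before imaging, and a selection-buffer image was taken beforehand, for Cy3-labelled switching-strand clusters on a modified Illumina MiSeq flow-cell annealed to 100 nM quencher-labelled ATP aptamer. Five buffer/ATP cycles were run with NaOH stripping and re-annealing between them. The fluorescence ratio per cluster is summed target-cycle over summed buffer-cycle Cy3 intensity, averaged per switch-domain sequence. Clusters outside 100-1000 RFU were excluded.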

Consider TTCGGTTGTG, for which the switch fluorescence ratio turned out to be 0.96 ± 0.013.

As for TTCGGTTTGG, the switch fluorescence ratio stood at 0.9952 ± 0.0061.

TTCGGTTTTC: the switch fluorescence ratio turned out to be 0.984 ± 0.033.

Turning to TTCGGTTTTG, the switch fluorescence ratio is 0.993 ± 0.031.

On to TTCGGTTTTT, for which the switch fluorescence ratio came to 1.02 ± 0.011.

On to TTCGTAAAAA, for which the switch fluorescence ratio is 1.09 ± 0.089.

As to TTCGTACTAT, the switch fluorescence ratio worked out at 0.993 ± 0.039.

Regarding TTCGTAGTGG, the switch fluorescence ratio amounted to 1 ± 0.013.

In the case of TTCGTAGTTT, the switch fluorescence ratio was determined as 0.964 ± 0.023.

Regarding TTCGTATTGT, the switch fluorescence ratio worked out at 0.975 ± 0.018.

Consider TTCGTCCTGG, for which the switch fluorescence ratio stood at 1.01 ± 0.056.

With TTCGTCGGTA, the switch fluorescence ratio was determined as 1.09 ± 0.15.

With TTCGTCTTTT, the switch fluorescence ratio turned out to be 0.98 ± 0.016.

As to TTCGTGGCCC, the switch fluorescence ratio turned out to be 0.9572 ± 0.003.

On to TTCGTGGGTG, for which the switch fluorescence ratio was determined as 1.03 ± 0.075.

Turning to TTCGTGTTAT, the switch fluorescence ratio came to 0.995 ± 0.021.

Turning to TTCGTTAGCG, the switch fluorescence ratio worked out at 0.996 ± 0.022.

Turning to TTCGTTATAC, the switch fluorescence ratio was determined as 2.29 ± 1.1.

On to TTCGTTCCGT, for which the switch fluorescence ratio came out at 1.03 ± 0.019.

In the case of TTCGTTCTTT, the switch fluorescence ratio came to 1.005 ± 0.0043.

For the sequence TTCTAAAAAG, the switch fluorescence ratio stood at 0.995 ± 0.035.

In the case of TTCTAATGGT, the switch fluorescence ratio is 1.01 ± 0.073.

In the case of TTCTACGGTA, the switch fluorescence ratio stood at 1.69 ± 0.68.

As for TTCTACTTTG, the switch fluorescence ratio was 1.035 ± 0.0074.

Consider TTCTACTTTT, for which the switch fluorescence ratio came to 1.01 ± 0.053.

TTCTAGTCGT: the switch fluorescence ratio was determined as 0.971 ± 0.019.

Regarding TTCTATTTCT, the switch fluorescence ratio was 0.9872 ± 0.0039.

As to TTCTCCGGGT, the switch fluorescence ratio is 1.24 ± 0.32.

TTCTCGATCT: the switch fluorescence ratio amounted to 1.03 ± 0.037.

TTCTCTGTAA: the switch fluorescence ratio is 2.66 ± 1.6.

Regarding TTCTGAGGGA, the switch fluorescence ratio stood at 1 ± 0.03.

TTCTGAGGGG: the switch fluorescence ratio turned out to be 1.03 ± 0.035.

For TTCTGCAGGG, the switch fluorescence ratio is 0.997 ± 0.043.

With TTCTGCGCCC, the switch fluorescence ratio came out at 2.52 ± 2.

As for TTCTGGAAAA, the switch fluorescence ratio came to 1.05 ± 0.064.

TTCTGGGGCA: the switch fluorescence ratio was determined as 1.05 ± 0.055.

In the case of TTCTGGGTCT, the switch fluorescence ratio is 0.9833 ± 0.0042.

Regarding TTCTGTATTG, the switch fluorescence ratio came out at 1.03 ± 0.035.

As to TTCTTACGTC, the switch fluorescence ratio turned out to be 1 ± 0.011.

Consider TTCTTCTCAA, for which the switch fluorescence ratio amounted to 1.15 ± 0.065.

Consider TTCTTGAGTA, for which the switch fluorescence ratio was determined as 0.984 ± 0.019.

TTCTTGCTAC: the switch fluorescence ratio stood at 1.78 ± 0.036.

TTCTTGGACG: the switch fluorescence ratio stood at 1.05 ± 0.16.

Consider TTCTTGGCGG, for which the switch fluorescence ratio amounted to 1 ± 0.07.

For the sequence TTCTTTGTGA, the switch fluorescence ratio was 1 ± 0.054.

As to TTCTTTTGTA, the switch fluorescence ratio worked out at 1.06 ± 0.076.

On to TTGAAAAAAA, for which the switch fluorescence ratio came out at 1.2 ± 0.27.

Regarding TTGAAAAAAC, the switch fluorescence ratio amounted to 1.04 ± 0.074.

Take TTGAAAAAGG: the switch fluorescence ratio was found to be 0.968 ± 0.018.

In the case of TTGAAAAATT, the switch fluorescence ratio was 1.03 ± 0.016.

With TTGAAAATGA, the switch fluorescence ratio was 0.979 ± 0.016.

Take TTGAACCCGA: the switch fluorescence ratio worked out at 1.01 ± 0.023.

For TTGAAGAAAA, the switch fluorescence ratio was 1.97 ± 1.3.

For TTGAAGGCAA, the switch fluorescence ratio is 1.59 ± 0.076.

TTGAAGGGGT: the switch fluorescence ratio was 1.08 ± 0.1.

Consider TTGAAGGGTT, for which the switch fluorescence ratio came to 0.9978 ± 0.0033.

For the sequence TTGAAGTAAG, the switch fluorescence ratio turned out to be 0.994 ± 0.019.

Turning to TTGAATGAAT, the switch fluorescence ratio was found to be 1.015 ± 0.0031.

In the case of TTGAATGCAT, the switch fluorescence ratio stood at 0.969 ± 0.13.

Take TTGAATTAAG: the switch fluorescence ratio amounted to 0.982 ± 0.032.

For TTGAATTATT, the switch fluorescence ratio stood at 1.03 ± 0.013.

Take TTGAATTGCT: the switch fluorescence ratio was 0.986 ± 0.032.

As for TTGAATTTCT, the switch fluorescence ratio came to 0.992 ± 0.016.

In the case of TTGACAAACG, the switch fluorescence ratio came out at 1.1 ± 0.054.

As to TTGACAAGGG, the switch fluorescence ratio amounted to 0.997 ± 0.015.

On to TTGACAATGT, for which the switch fluorescence ratio amounted to 1.03 ± 0.095.

(Values after the supplement of paper PMC10126150.)
